Bridges are numbered along the chain shown (N, C = ends). Where no end group is shown, it is not given here. C4 = constraint linking the two cyclising residues; C5 = constraint linking the two cyclising residues; C7 = constraint linking the two cyclising residues
Key:
Assay in all cases: fluorescence polarisation competition
P5C4 = molecular target: T1, P5C4 (linker 1-8 via C4; not fully specified (N-terminus, C-terminus); also: structure of constraint C4 not given here in text)
T1 chain: CRLYGFKC

P3 = molecular target: T2, P3
T2 chain: Ac-RLYGFKW-NH2

P4 = molecular target: T3, P4
T3 chain: Ac-RLYGFKWH-NH2

P1 = molecular target: T4, P1
T4 chain: Ac-RLYGFK-NH2

P5C5 = molecular target: T5, P5C5 (linker 1-8 via C5; not fully specified (N-terminus, C-terminus); also: structure of constraint C5 not given here in text)
T5 chain: CRLYGFKC

P2 = molecular target: T6, P2
T6 chain: Ac-LYGFKW-NH2

P5C7 = molecular target: T7, P5C7 (linker 1-8 via C7; not fully specified (N-terminus, C-terminus); also: structure of constraint C7 not given here in text)
T7 chain: CRLYGFKC

P7C8 = molecular target: T8, P7C8 (bridge 1-8; not fully specified (N-terminus, C-terminus, bridges); printed as C_C8_RLYGFKW_C8_; also: structure of constraint C8 not given here in text)
T8 chain: CRLYGFKW

- IC50 (P5C4): 54.6 µM
- IC50 (P3): 22.5 µM
- IC50 (P4): 16.7 µM
- IC50 (P1): > 500 µM
- IC50 (P5C5): 28.9 µM
- IC50 (P2): 137 µM
- IC50 (P5C7): 40 µM
- IC50 (P7C8): 15.6 µM
B1: CK2α (protein)
chain: MSGPVPSRARVYTDVNTHRPREYWDYESHVVEWGNQDDYQLVRKLGRGKYSEVFEAINITNNEKVVVKILKPVKKKKIKREIKILENLRGGPNIITLADIVKDPVSRTPALVFEHVNNTDFKQLYQTLTDYDIRFYMYEILKALDYCHSMGIMHRDVKPHNVMIDHEHRKLRLIDWGLAEFYHPGQEYNVRVASRYFKGPELLVDYQMYDYSLDMWSLGCMLASMIFRKEPFFHGHDNYDQLVRIAKVLGTEDLYDYIDKYNIELDPRFNDILGRHSRKRWERFVHSENQHLVSPEALDFLDKLLRYDHQSRLTAREAMEHPYFYTVVKDQARMGSSSMPGGSTPVSSANMMSGISSVPTPSPLGPLAGSPVIAAANPLGMPVPAAAGAQQ

From paper PMC9004346 (2022)
